T1: Lck phosphopeptide (ARLIEDNEpYTAAREG)
T1 chain: ARLIEDNEYTAAREG


Legend:
GST tag alone = molecular target: T2, GST tag alone (UniProt P08515 1-218 = GST); assay: GST pull-down with glutathione-agarose from E. coli BL21 lysates, S-protein-HRP blot
T2 construct: Negative control of the pull-down; also called GST alone
Method: The s-tagged constructs were prepared using pET-30, (Novagen, San Diego, Calif. 92121), however, other vector systems can be used. […] The constructs were equally expressed using E. coli BL21. Either a GST-Tagged SH3 domain of Csk or a GST tag alone was co-expressed with the LYP fragment constructs. A glutathione-agarose bead was added to each of the BL21 lysates. Precipitated proteins were separated by gel-electrophoresis and transferred to a nitrocellulose filter. The filters were incubated with S-protein HRP and ECL reagent to allow for chemiluminescent detection of Csk bound LYP. […] None of the constructs precipitated when co-expressed with GST alone. In this example, bound material was detected using S-protein-horseradish peroxidase.

[1] = molecular target: T3, endogenous Csk from Jurkat T cells (UniProt P41240 2-450, limits assumed); assay: S-tag pull-down from Jurkat T cell lysate, anti-Csk blot
T3 construct: mature; Native protein in the cell lysate
Method: Jurkat T cells, which endogenously express Csk, were lysed and the protein lysate was subjected to a pull down assay using S-tagged LYP either having R620 or having W620. A blot was performed and detection was carried out using an anti-Csk primary antibody in a two-stage detection system.

[2] = molecular target: T1, Lck phosphopeptide (ARLIEDNEpYTAAREG)

T2 sequence (P08515 whole entry): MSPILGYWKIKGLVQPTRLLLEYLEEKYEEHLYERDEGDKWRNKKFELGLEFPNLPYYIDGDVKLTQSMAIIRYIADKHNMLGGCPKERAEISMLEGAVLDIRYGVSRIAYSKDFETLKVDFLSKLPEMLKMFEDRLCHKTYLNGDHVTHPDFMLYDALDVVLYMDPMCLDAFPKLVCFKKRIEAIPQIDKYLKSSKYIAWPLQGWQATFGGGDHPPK
T3 sequence (P41240 2-450 limits assumed): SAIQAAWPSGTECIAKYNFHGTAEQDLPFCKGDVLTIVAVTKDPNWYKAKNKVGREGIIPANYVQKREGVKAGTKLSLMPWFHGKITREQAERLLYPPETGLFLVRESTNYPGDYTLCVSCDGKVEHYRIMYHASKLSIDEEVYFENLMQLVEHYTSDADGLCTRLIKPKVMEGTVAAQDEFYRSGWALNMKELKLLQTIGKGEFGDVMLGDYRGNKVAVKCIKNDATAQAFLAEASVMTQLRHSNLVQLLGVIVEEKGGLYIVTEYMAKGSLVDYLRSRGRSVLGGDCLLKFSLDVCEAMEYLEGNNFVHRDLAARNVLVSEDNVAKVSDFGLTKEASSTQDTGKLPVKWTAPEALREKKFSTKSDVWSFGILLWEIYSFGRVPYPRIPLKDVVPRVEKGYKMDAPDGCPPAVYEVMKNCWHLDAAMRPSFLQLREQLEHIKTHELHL

| binding result (GST tag alone) | binding result [1] | Binder | Dephosphorylation of an Lck phosphopeptide by immunoprecipitated HA-tagged LYP [2] |
| --- | --- | --- | --- |
| no binding | – | S-tagged LYP polypeptide corresponding to amino acid residues 603-710 with arginine at position 620 (other, human, UniProt Q9Y2R2 603-710, looked up, Expressed in E. coli BL21; also called Construct 1; not shown: S-tag and other vector-derived residues from pET-30 (Novagen)) LATAPRIDDEIPPPLPVRTPESFIVVEEAGEFSPNVPKSLSSAVKVKIGTSLEWGGTSEPKKFDDSVILRPSKSVKLRSPKSELHQDRSSPPPPLPERTLESFFLADE | – |
| no binding | no binding | S-tagged LYP polypeptide corresponding to amino acid residues 603-710 with tryptophan at position 620 (other, human, UniProt Q9Y2R2 603-710, looked up, Expressed in E. coli BL21; also called Construct 2; not shown: S-tag and other vector-derived residues from pET-30 (Novagen)) LATAPRIDDEIPPPLPVWTPESFIVVEEAGEFSPNVPKSLSSAVKVKIGTSLEWGGTSEPKKFDDSVILRPSKSVKLRSPKSELHQDRSSPPPPLPERTLESFFLADE | – |
| – | – | full length Hemagglutinin (HA) tagged LYP having R620 (protein) MDQREILQKFLDEAQSKKITKEEFANEFLKLKRQSTKYKADKTYPTTVAEKPKNIKKNRYKDILPYDYSRVELSLITSDEDSSYINANFIKGVYGPKAYIATQGPLSTTLLDFWRMIWEYSVLIIVMACMEYEMGKKKCERYWAEPGEMQLEFGPFSVSCEAEKRKSDYIIRTLKVKFNSETRTIYQFHYKNWPDHDVPSSIDPILELIWDVRCYQEDDSVPICIHCSAGCGRTGVICAIDYTWMLLKDGIIPENFSVFSLIREMRTQRPSLVQTQEQYELVYNAVLELFKRQMDVIRDKHSGTESQAKHCIPEKNHTLQADSYSPNLPKSTTKAAKMMNQQRTKMEIKESSSFDFRTSEISAKEELVLHPAKSSTSFDFLELNYSFDKNADTTMKWQTKAFPIVGEPLQKHQSLDLGSLLFEGCSNSKPVNAAGRYFNSKVPITRTKSTPFELIQQRETKEVDSKENFSYLESQPHDSCFVEMQAQKVMHVSSAELNYSLPYDSKHQIRNASNVKHHDSSALGVYSYIPLVENPYFSSWPPSGTSSKMSLDLPEKQDGTVFPSSLLPTSSTSLFSYYNSHDSLSLNSPTNISSLLNQESAVLATAPRIDDEIPPPLPVRTPESFIVVEEAGEFSPNVPKSLSSAVKVKIGTSLEWGGTSEPKKFDDSVILRPSKSVKLRSPKSELHQDRSSPPPPLPERTLESFFLADEDCMQAQSIETYSTSYPDTMENSTSSKQTLKTPGKSFTRSKSLKILRNMKKSICNSCPPNKPAESVQSNNSSSFLNFGFANRFSKPKGPRNPPPTWNI | Immunoprecipitated LYP*R620 dephosphorylated 6.312±1.596 pmoles of substrate/min/106 transfected cells (n=5) |

Source: patent US20080199514A1 (BURNHAM INSTITUTE, published 2008)
